Experimental data taken from the RNAGym collection of RNA variant scans (doi:10.7554/elife.90254).

B1: LINE1-full (parent)
chain: UACGUAGGUGGUUUUCCCCUGAUAGUGCUAAGGGGGCCUGGAAGUUUGGACUGGGCAGAGCUCAACACAGCGUGGCAAAGUGGCUGUGGCUAGACUGCCUCUCUGGAUUCCUCGUCACUCAGCAGGGCAUCUCUGAGAGAAAUGCC

Variants of: B1
Assay: self-cleavage, relative activity (ratio to wild type); higher = more cleavage; in vitro, sequencing; the parent is a self-cleaving ribozyme

| Variant | self-cleavage |
| --- | --- |
| U45C C95U | 0.2 |
| U45A G137U | 1.77 |
| G44U U47C | 1.45 |
| U45C A78G | 1.31 |
| U46C G93U | 0.06 |
| U45A U108C | 1.48 |
| U46C C103A | 1.58 |
| U45C C116U | 1.36 |
| U45C U85C | 0.17 |
| U46C A77U | 1.51 |
| U46C A77G | 2.46 |
| U45A U87A | 0.09 |
| U46C A124U | 1.25 |
| U46C A124G | 1.54 |
| U45C G135A | 1.28 |
| U46A U112A | 1.37 |
| U46A U112C | 1.28 |
| U45G A140G | 1.33 |
| U46A A138G | 1.66 |
| U45C A124G | 1.18 |
| U45C A124U | 1.58 |

| Variant | self-cleavage |
| --- | --- |
| U47A A69U | 0.04 |
| U45C U130C | 1.39 |
| U45C U130A | 1.66 |
| U45C U130G | 1.9 |
| U45A A77G | 1.56 |
| U45A A124G | 0.41 |
| U45A U91A | 0.46 |
| U46A A64U | 0.46 |
| U46A A64G | 0.18 |
| U45G A64G | 0.24 |
| U46C A136G | 1.21 |
| U46C U91C | 0.99 |
| U46C U91G | 0.09 |
| U45C C63A | 0.11 |
| U45C C63U | 0.18 |
| U46A A121G | 1.15 |
| U46C U115C | 1.66 |
| U45C G55C | 0.1 |
| U45C G55A | 0.27 |
| U46A U115A | 1.26 |
| U46A U115C | 1.72 |

| Variant | self-cleavage |
| --- | --- |
| U45C G75A | 1.13 |
| U46A U62A | 0.04 |
| G44A U134C | 0.92 |
| U45G G83A | 0.54 |
| G44A U143C | 1.48 |
| U45C G137U | 1.23 |
| U46A U104C | 1.96 |
| U47A A92G | 0.17 |
| U46C G74A | 0.52 |
| U45C U81A | 2.03 |
| U45C C146A | 1.56 |
| U45C C146U | 2.99 |
| U46G A67G | 0.32 |
| U45A A64U | 0.37 |
| U45G C113U | 0.88 |
| U46A U130C | 1.88 |
| U46C G80A | 2.95 |
| U45C U132G | 1.33 |
| U46C A67C | 0.05 |
| U45C G122A | 0.81 |
| U45G A92U | 0.61 |

| Variant | self-cleavage |
| --- | --- |
| U46C U109A | 1.41 |
| U46G A117U | 2.76 |
| U45C C66A | 0.19 |
| U45A A129G | 1.26 |
| U45C G125C | 1.13 |
| U47A A50G | 1.2 |
| G44U A64G | 0.12 |
| U45C C145U | 1.5 |
| U45A U52C | 1.46 |
| U46A A59G | 0.07 |
| U46A U132A | 1.09 |
| U46C C120U | 1.57 |
| U46C C120A | 0.85 |
| U46C U96C | 0.3 |
| U46C U96A | 0.08 |
| U46A U143A | 1.38 |
| U46C C84U | 0.2 |
| U46A U100C | 1.75 |
| U46G A79G | 1.23 |
| U45C A65C | 0.08 |
